Laboratory results reported in the supplement of paper PMC9170038.

Test system: MS2 coat protein
Test: apparent KD of MS2 coat protein; designed switch direction (-1 OFF switch, 1 ON switch): -1; higher = weaker reporter binding
Procedure, shortened: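 The buffer was Tris-HCl pH 7.5 with KCl, MgCl2, BSA, DTT, tRNA and Tween-20. In it, SNAP-549-labelled MS2 coat protein was titrated in doubling steps from 0.7 or 1.5 nM to 3 µM over chip-bound RNA switches transcribed by stalled E. coli RNA polymerase on Illumina chips. Apparent KD is the per-design median over clusters of curve fits to normalised fluorescence.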

[1] = Eterna round: R95, input ligand: FMN 200 uM
[2] = Eterna round: R95, input ligand: microRNA oligo, concentration not stated
[3] = Eterna round: R95, input ligand: none
[4] = input ligand: microRNA oligo, concentration not stated

Sequence | apparent KD of MS2 coat protein [1] | apparent KD of MS2 coat protein [2] | apparent KD of MS2 coat protein [3] | apparent KD of MS2 coat protein (input ligand: FMN 200 uM) | apparent KD of MS2 coat protein [4] | apparent KD of MS2 coat protein (input ligand: none)
CGUUGGCGAGGAUAUACAUGAGGAUCACCCAUGUGAGAGAAAAAAGUGAGGAAGAAAAGUAGAAGGCGCUGACG [salish99_ex3_r3_050] (puzzle: Exclusion 3) | 350 nM | 101 nM | 34.9 nM | – | – | –
UUUCAUCAUGUAGGAUAUGCGUGGCAAAGCUAUGCAGAAGGACAUGAGGAUCACCCAUGUUCUAGCGUCUGCGUACAGAUGCUA [Mat - Exclusion NG 1 - Mod of JL - D73] (Eterna round: R96, puzzle: Exclusion NG 1) | – | – | – | 404 nM | 43.2 nM | 68 nM
UGCUACGGAGGAUAUACAUGAGGAUCACCCAUGUGUGAGAUUUGGCCGAGAGGCCAAUGUAGAAGGCCGUAGCU [jl-ex3-4.20 jl mod] (Eterna round: R97, puzzle: Exclusion 3) | – | – | – | 371 nM | – | 35.9 nM
GAAAAGGUAGGAUAUACGAAAAAAAAGGGUAGAAAAUAAACACAUGAGGAUCACCCAUGUAGAAGGACCAAAAG [salish99_ex2_r3_075] (puzzle: Exclusion 2) | 92 nM | 25.3 nM | 25.7 nM | – | – | –
UUUCCUUGUGUGAGGAUAUACUUGUUUGUGUUUUUGUAGAAGGCACAUGAGGAUCACCCAUGUACUCUUUCCUG [JR_BME4_Sub023] (Eterna round: R96, puzzle: Brourd's mod of Exclusion 4) | – | – | – | 68.6 nM | 34.7 nM | 37.7 nM
UAUGGUUAAGUCAGGAUAUGCACGCAGAUUACAAAGCAGAAGGGACAUGAGGAUCACCCAUGUACACUCGUGUU [Ex4 #79] (Eterna round: R97, puzzle: Brourd's mod of Exclusion 4) | – | – | – | 25.9 nM | – | 36.1 nM
GCCGUUGAAGGAUAUGCUGAACUUGAGGUGCGUCCAUCCACACAUGAGGAUCACCCAUGUAGAAGGUCAACGGA [Eternabot (L2) Solution 67] (Eterna round: R97, puzzle: Exclusion 2) | – | – | – | 456 nM | – | 287 nM
GUGAAGGUAGGAUAUACGAUAAUAUAGGGUAGAUAUAUAACACAUGAGGAUCACCCAUGUAGAAGGACCAAUUG [Mat - Exclusion 2 - Mod of my Tesla design - D59] (puzzle: Exclusion 2) | – | 29.1 nM | – | – | – | –
UAGCCCAACUCAUCCUCAUUGAGACAUGAGGAUCACCCAUGUGAGGAUAUUGCGUCGAGAGGACACGAGAAGGCACAAUAGUUU [Eternabot solution 17] (Eterna round: R96, puzzle: Exclusion NG 3) | – | – | – | 216 nM | 88.1 nM | 109 nM
GAGAAGGUAGGAUAUACGAAUAAAGAGGGUAGGAAUAAGACACAUGAGGAUCACCCAUGUAGAAGGACCAAGAG [Mat - Exclusion 2 - Mod of my Tesla design - D50] (puzzle: Exclusion 2) | 37.1 nM | 20.3 nM | 21.4 nM | – | – | –
AAUACACAUGAGGAUCACCCAUGUUAGGAUAUUAGCGGGCAGACAGACAGACAGACGAUGAGAAGGAACAGGAA [Excls1-VII] (puzzle: Exclusion 1) | 23.3 nM | 22.3 nM | 27.7 nM | – | – | –
UUUUUAUAUGAAGGAUAUACUUAACAUGAGGAUCACCCAUGUGGUGUUGUGAGUGAGUGAGUUUAGUAGAAGGUCAAGUAUUGU [JMF's solution 39] (Eterna round: R96, puzzle: Exclusion NG 2) | – | – | – | 891 nM | 347 nM | 441 nM
CCAUGGGAGCGAGGAUAUAGCCCAUGGGAAGAGCUAGAAGGCGCAGACAUGAGGAUCACCCAUGUGUUCAUGAGGAGGUGGACA (Eterna round: R96, puzzle: Exclusion NG 1) | – | – | – | 95.5 nM | 47.9 nM | 73.7 nM
CAAAAGGAAGGAUAUGCAUCGGGAGGUGCUCAGCAUCAAAUACAUGAGGAUCACCCAUGUAGAAGGUCUGAAAA [Edbile] (puzzle: Exclusion 2) | – | 31.5 nM | – | – | – | –
ACUUAUAGAGGAUAUACAGUUUAUUACAUGAGGAUCACCCAUGUUCUUCAAUGUCCUGAAGUAGAAGGCUAAGGAA [Ex5 Malc#5 mod4] (Eterna round: R97, puzzle: Exclusion 5) | – | – | – | 19.7 nM | – | 16.3 nM
AAAUACAGAGGAUAUAUGGAAAACGACUUGAGGAUCACCCAAGUACGGGUGGCCUAACCCGUAGAAGGCUGCCAAA [Tibece] (Eterna round: R97, puzzle: Exclusion 5) | – | – | – | 72.5 nM | – | 30.6 nM
AAAAGAAAAGUAGGAUAUGUGAAAGGAAGUGUAACAGAAGGACUGUGGGUCUUCCGACAUGAGGAUCACCCAUGUAAAAGAAAA [PowerStrip EXNG 1.8] (Eterna round: R96, puzzle: Exclusion NG 1) | – | – | – | 114 nM | 6.35 nM | 53.9 nM
UUUUAUUGCAAGGAUAUGCAAUUUAUUAUUUAUGCAGAAGGUGCUACAUGAGGAUCACCCAUGUUUCUGGGUUU [JR_E6_Sub044] (puzzle: Exclusion 6) | 253 nM | 91.8 nM | 86.7 nM | – | – | –
GUGUAGUCAGGAUAUACAUGAGGAUCACCCAUGUGAAUAAGAUAGAAUAAGAUAAAGUGUAGAAGGGAUAGUGU [Excluse me!!! 22 - Jieux - Exclusion 3] (puzzle: Exclusion 3) | – | 30.7 nM | – | – | – | –
GGAGGAAAGAUAGGAUAUUCGAGGAAGGUGGUGAUAGAGACAUGAGGAUCACCCAUGUAAGGAGGGAAGAAGGGUCGAGGAGGA [AK ExNG2-V2-7] (Eterna round: R96, puzzle: Exclusion NG 2) | – | – | – | 411 nM | 193 nM | 142 nM
UAUGUUUUUGUGAGGAUAUACUUUGUUUGGUCGUAGUAGAAGGCACAUGAGGAUCACCCAUGUAGAUUUUUGGU [JR_BME4_Sub010] (puzzle: Brourd's mod of Exclusion 4) | – | 22.9 nM | – | – | – | –
CUUUUGUGAGGAUAUCAGUUGUAAAAAAAUAAAAUUACUACUGAGAAGGCACAUGAGGAUCACCCAUGUUCCUC [salish99_ex4_r3_033] (puzzle: Exclusion 4) | – | 33.2 nM | – | – | – | –
UUAAUUAAUUUAAUAUAAGAUCACAUGAGGAUCACCCAUGUAUAGGAUAUCAGCUCGAUUAGAGCUGAGAAGGAUACAUAAUAU [ExNG3/2-B1] (Eterna round: R96, puzzle: Exclusion NG 3) | – | – | – | 135 nM | 188 nM | 216 nM
AAAAGUUAAGGAUAUACUUGAGGAUCACCCAAGUAGGUGGCUUCAGCCGGAAACCGGCGUAGAAGGUAGCAGAA [Laentezabe] (Eterna round: R97, puzzle: Exclusion 3) | – | – | – | 54.9 nM | – | 56.3 nM
AACAAGCUUUUUUGAUGAAUGAUAGUAGGUAGCUCCUUUACAUGAGGAUCACCCAUGUUUGUGUAGCUCGAUCUUUU [JR_SV3TOV2_Sub077] (puzzle: Sensor v3, turn-off variant 2) | 12.7 nM | 16.2 nM | 12.1 nM | – | – | –
CUCGUGUAAGGAUAUGCGAGCCACGGAAAUAAAACGUGGAGGUAGAAGGUACAUGAGGAUCACCCAUGUAAAAC [Anonveat] (puzzle: Exclusion 4) | – | 24.3 nM | – | – | – | –
